Measured values reported in US20250270319A1 (Alector, published 2025).

Columns and labels:
[1] = biological target: human CD33 on primary human dendritic cells (human, UniProt P20138 18-364); assay: cell-based or functional assay
[2] = biological target: T1, recombinant human CD33 protein (Sino Biologicals) (human, UniProt P20138 18-259); assay: BLI (ForteBio), antibody on anti-human Fc sensor, CD33 10 nM
T1 construct: Bought protein; also called recombinant CD33
Experimental: Affinity parameters of the antibody variants for human CD33 were measured by BioLayer Interferometry in a ForteBio assay according to standard techniques (Estep et al. (2013) MAbs 5(2): 270-8) and were compared to those of the parental antibody (antibody 6C7H8) and the parental humanized antibody (antibody 6C71H5). Briefly, the antibodies were captured on anti-human Fc Biosensors (Pall ForteBio). Recombinant human CD33 (10 nM, Sino Biologicals) was then bound to the captured anti-CD33 surface (200 s association time, 1200 s dissociation time). Local fitting was used to extract association and dissociation rate constants (kₐ and kd, respectively) for each antibody. Apparent affinity constants (KD) were calculated from the ratio kd/kₐ.

[3] = biological target: T2, recombinant cynomolgus CD33 protein (NovoProtein) (cynomolgus); assay: ELISA, plate coated with recombinant CD33
T2 construct: Bought protein; also called cyno CD33
T2 sequence (chain, as listed by the source limits assumed): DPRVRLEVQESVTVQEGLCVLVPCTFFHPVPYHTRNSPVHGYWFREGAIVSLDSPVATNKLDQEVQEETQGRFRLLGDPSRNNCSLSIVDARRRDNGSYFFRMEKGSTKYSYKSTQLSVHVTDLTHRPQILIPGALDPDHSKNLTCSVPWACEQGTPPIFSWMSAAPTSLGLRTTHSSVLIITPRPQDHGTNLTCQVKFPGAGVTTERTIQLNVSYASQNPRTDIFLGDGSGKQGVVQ

T1 sequence (P20138 18-259 limits assumed): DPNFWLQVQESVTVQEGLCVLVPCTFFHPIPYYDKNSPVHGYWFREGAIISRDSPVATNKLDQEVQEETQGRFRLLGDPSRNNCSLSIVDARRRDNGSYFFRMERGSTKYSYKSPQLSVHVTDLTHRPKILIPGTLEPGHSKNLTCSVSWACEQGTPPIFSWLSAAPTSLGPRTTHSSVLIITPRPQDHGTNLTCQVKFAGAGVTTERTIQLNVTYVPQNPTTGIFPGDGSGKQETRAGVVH
human CD33 on primary human dendritic cells, sequence (P20138 18-364): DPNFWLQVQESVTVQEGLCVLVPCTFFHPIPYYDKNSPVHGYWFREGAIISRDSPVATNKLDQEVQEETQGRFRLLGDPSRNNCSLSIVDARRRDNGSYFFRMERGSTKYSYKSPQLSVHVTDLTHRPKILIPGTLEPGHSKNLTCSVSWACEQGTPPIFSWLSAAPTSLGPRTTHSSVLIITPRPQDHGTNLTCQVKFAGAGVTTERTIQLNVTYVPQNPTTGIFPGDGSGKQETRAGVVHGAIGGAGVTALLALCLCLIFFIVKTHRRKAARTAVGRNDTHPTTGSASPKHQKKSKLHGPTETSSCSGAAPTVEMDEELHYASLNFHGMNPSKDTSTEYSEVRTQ

| Fold increase in potency compared to 6C7H5 [1] | Maximal reduction in CD33 (% remaining) [1] | Receptor downregulation, (EC50) (pM) [1] | Kd [2] | koff [2] | kon [2] | EC50 [3] | Relative maximal binding (cyno/human) [3] | Relative potency (human/cyno) [3] | Binder |
| --- | --- | --- | --- | --- | --- | --- | --- | --- | --- |
| 0.3 fold | 27.5 % remaining | 160 pM | 0.926 nM | 0.000694 s⁻¹ | 749000 M⁻¹ s⁻¹ | – | – | – | anti-CD33 antibody 6C7H12 (antibody, V domains shown, VH/VL only) VH: EVQLVESGGGLVQPGGSLRLSCAGSGFTFSNYGMNWVRQAPGKGLEWVAEIRLKSNNYVTNYAASVKGRFTISRDDSKNSVYLQMNSLKTEDTGVYYCTRAGYYVPFAYWGQGTLVTVSS VL: QLVLTQSPSASASLGASVKLTCTLSSQHSTYTIEWYQQQPEKGPRYLMELKKEGSHSTGDGIPDRFSGSSSGAERYLTISSLQSEDEADYYCGVGDTIKEQFVYVFGGGTKLTVL |
| 0.3 fold | 27.3 % remaining | 134 pM | 0.991 nM | 0.000868 s⁻¹ | 875000 M⁻¹ s⁻¹ | – | – | – | anti-CD33 antibody 6C7H29 (antibody, V domains shown, VH/VL only) VH: EVQLVESGGGLVQPGGSLRLSCAGSGFTFSAYSMNWVRQAPGKGLEWVAEIRLKSNNYVTNYAASVKGRFTISRDDSKNSVYLQMNSLKTEDTGVYYCTRAGYYVPFAYWGQGTLVTVSS VL: QLVLTQSPSASASLGASVKLTCTLSSQHSTYTIEWYQQQPEKGPRYLMELKKEGSHSTGDGIPDRFSGSSSGAERYLTISSLQSEDEADYYCGVGDTIKEQFVYVFGGGTKLTVL |
| 0.1 fold | 28 % remaining | 305 pM | 0.782 nM | 0.00102 s⁻¹ | 1.3e+06 M⁻¹ s⁻¹ | – | – | – | anti-CD33 antibody 6C7H16 (antibody, V domains shown, VH/VL only) VH: EVQLVESGGGLVQPGGSLRLSCAGSGFTFSNYLMNWVRQAPGKGLEWVAEIRLKSNNYVTNYAASVKGRFTISRDDSKNSVYLQMNSLKTEDTGVYYCTRAGYYVPFAYWGQGTLVTVSS VL: QLVLTQSPSASASLGASVKLTCTLSSQHSTYTIEWYQQQPEKGPRYLMELKKEGSHSTGDGIPDRFSGSSSGAERYLTISSLQSEDEADYYCGVGDTIKEQFVYVFGGGTKLTVL |
| 0.1 fold | 22.5 % remaining | 319 pM | 0.552 nM | 0.000757 s⁻¹ | 1.37e+06 M⁻¹ s⁻¹ | – | – | – | anti-CD33 antibody 6C7H24 (antibody, V domains shown, VH/VL only) VH: EVQLVESGGGLVQPGGSLRLSCAGSGFTFSNYNMNWVRQAPGKGLEWVAEIRLKSNNYVTNYAASVKGRFTISRDDSKNSVYLQMNSLKTEDTGVYYCTRAGYYVPFAYWGQGTLVTVSS VL: QLVLTQSPSASASLGASVKLTCTLSSQHSTYTIEWYQQQPEKGPRYLMELKKEGSHSTGDGIPDRFSGSSSGAERYLTISSLQSEDEADYYCGVGDTIKEQFVYVFGGGTKLTVL |
| 0.8 fold | 32.1 % remaining | 51.9 pM | 0.853 nM | 0.000523 s⁻¹ | 613000 M⁻¹ s⁻¹ | – | – | – | anti-CD33 antibody 6C7H17 (antibody, V domains shown, VH/VL only) VH: EVQLVESGGGLVQPGGSLRLSCAGSGFTFSNYYMNWVRQAPGKGLEWVAEIRLKSNNYVTNYAASVKGRFTISRDDSKNSVYLQMNSLKTEDTGVYYCTRAGYYVPFAYWGQGTLVTVSS VL: QLVLTQSPSASASLGASVKLTCTLSSQHSTYTIEWYQQQPEKGPRYLMELKKEGSHSTGDGIPDRFSGSSSGAERYLTISSLQSEDEADYYCGVGDTIKEQFVYVFGGGTKLTVL |
| 1.6 fold | 30.3 % remaining | 27.6 pM | 0.246 nM | 0.00013 s⁻¹ | 529000 M⁻¹ s⁻¹ | – | – | – | anti-CD33 antibody 6C7H25 (antibody, V domains shown, VH/VL only) VH: EVQLVESGGGLVQPGGSLRLSCAGSGFTFSNYEMNWVRQAPGKGLEWVAEIRLKSNNYVTNYAASVKGRFTISRDDSKNSVYLQMNSLKTEDTGVYYCTRAGYYVPFAYWGQGTLVTVSS VL: QLVLTQSPSASASLGASVKLTCTLSSQHSTYTIEWYQQQPEKGPRYLMELKKEGSHSTGDGIPDRFSGSSSGAERYLTISSLQSEDEADYYCGVGDTIKEQFVYVFGGGTKLTVL |
| 0.2 fold | 28.3 % remaining | 175 pM | 0.718 nM | 0.000944 s⁻¹ | 1.32e+06 M⁻¹ s⁻¹ | – | – | – | anti-CD33 antibody 6C7H26 (antibody, V domains shown, VH/VL only) VH: EVQLVESGGGLVQPGGSLRLSCAGSGFTFSNYIMNWVRQAPGKGLEWVAEIRLKSNNYVTNYAASVKGRFTISRDDSKNSVYLQMNSLKTEDTGVYYCTRAGYYVPFAYWGQGTLVTVSS VL: QLVLTQSPSASASLGASVKLTCTLSSQHSTYTIEWYQQQPEKGPRYLMELKKEGSHSTGDGIPDRFSGSSSGAERYLTISSLQSEDEADYYCGVGDTIKEQFVYVFGGGTKLTVL |
| 1 fold | 29 % remaining | 40.8 pM | 0.619 nM | 0.000457 s⁻¹ | 739000 M⁻¹ s⁻¹ | – | – | – | anti-CD33 antibody 6C7H20 (antibody, V domains shown, VH/VL only) VH: EVQLVESGGGLVQPGGSLRLSCAGSGFTFSNYPMNWVRQAPGKGLEWVAEIRLKSNNYVTNYAASVKGRFTISRDDSKNSVYLQMNSLKTEDTGVYYCTRAGYYVPFAYWGQGTLVTVSS VL: QLVLTQSPSASASLGASVKLTCTLSSQHSTYTIEWYQQQPEKGPRYLMELKKEGSHSTGDGIPDRFSGSSSGAERYLTISSLQSEDEADYYCGVGDTIKEQFVYVFGGGTKLTVL |
| 0.2 fold | 27.7 % remaining | 252 pM | 1.03 nM | 0.000825 s⁻¹ | 801000 M⁻¹ s⁻¹ | – | – | – | anti-CD33 antibody 6C7H15 (antibody, V domains shown, VH/VL only) VH: EVQLVESGGGLVQPGGSLRLSCAGSGFTFSNYSMNWVRQAPGKGLEWVAEIRLKSNNYVTNYAASVKGRFTISRDDSKNSVYLQMNSLKTEDTGVYYCTRAGYYVPFAYWGQGTLVTVSS VL: QLVLTQSPSASASLGASVKLTCTLSSQHSTYTIEWYQQQPEKGPRYLMELKKEGSHSTGDGIPDRFSGSSSGAERYLTISSLQSEDEADYYCGVGDTIKEQFVYVFGGGTKLTVL |
| 0.3 fold | 28.4 % remaining | 164 pM | 0.805 nM | 0.000798 s⁻¹ | 991000 M⁻¹ s⁻¹ | – | – | – | anti-CD33 antibody 6C7H14 (antibody, V domains shown, VH/VL only) VH: EVQLVESGGGLVQPGGSLRLSCAGSGFTFSNYAMNWVRQAPGKGLEWVAEIRLKSNNYVTNYAASVKGRFTISRDDSKNSVYLQMNSLKTEDTGVYYCTRAGYYVPFAYWGQGTLVTVSS VL: QLVLTQSPSASASLGASVKLTCTLSSQHSTYTIEWYQQQPEKGPRYLMELKKEGSHSTGDGIPDRFSGSSSGAERYLTISSLQSEDEADYYCGVGDTIKEQFVYVFGGGTKLTVL |
| 0.3 fold | 27.6 % remaining | 147 pM | 0.76 nM | 0.000859 s⁻¹ | 1.13e+06 M⁻¹ s⁻¹ | – | – | – | anti-CD33 antibody 6C7H28 (antibody, V domains shown, VH/VL only) VH: EVQLVESGGGLVQPGGSLRLSCAGSGFTFSDYSMNWVRQAPGKGLEWVAEIRLKSNNYVTNYAASVKGRFTISRDDSKNSVYLQMNSLKTEDTGVYYCTRAGYYVPFAYWGQGTLVTVSS VL: QLVLTQSPSASASLGASVKLTCTLSSQHSTYTIEWYQQQPEKGPRYLMELKKEGSHSTGDGIPDRFSGSSSGAERYLTISSLQSEDEADYYCGVGDTIKEQFVYVFGGGTKLTVL |
| 0.3 fold | 29.2 % remaining | 148 pM | 0.609 nM | 0.00064 s⁻¹ | 1.05e+06 M⁻¹ s⁻¹ | – | – | – | anti-CD33 antibody 6C7H18 (antibody, V domains shown, VH/VL only) VH: EVQLVESGGGLVQPGGSLRLSCAGSGFTFSNYHMNWVRQAPGKGLEWVAEIRLKSNNYVTNYAASVKGRFTISRDDSKNSVYLQMNSLKTEDTGVYYCTRAGYYVPFAYWGQGTLVTVSS VL: QLVLTQSPSASASLGASVKLTCTLSSQHSTYTIEWYQQQPEKGPRYLMELKKEGSHSTGDGIPDRFSGSSSGAERYLTISSLQSEDEADYYCGVGDTIKEQFVYVFGGGTKLTVL |
| 0.4 fold | 26.2 % remaining | 120 pM | 0.558 nM | 0.000691 s⁻¹ | 1.24e+06 M⁻¹ s⁻¹ | – | – | – | anti-CD33 antibody 6C7H23 (antibody, V domains shown, VH/VL only) VH: EVQLVESGGGLVQPGGSLRLSCAGSGFTFSNYVMNWVRQAPGKGLEWVAEIRLKSNNYVTNYAASVKGRFTISRDDSKNSVYLQMNSLKTEDTGVYYCTRAGYYVPFAYWGQGTLVTVSS VL: QLVLTQSPSASASLGASVKLTCTLSSQHSTYTIEWYQQQPEKGPRYLMELKKEGSHSTGDGIPDRFSGSSSGAERYLTISSLQSEDEADYYCGVGDTIKEQFVYVFGGGTKLTVL |
| – | – | – | – | – | – | 2.96 nM | 0.47 | 0.06 | anti-CD33 6C7 chimeric antibody (antibody, V domains shown, detected with anti-human IgG; also called 6C7 Chimeric Ab) VH: EVKLEESGGGLVQPGGSMKLSCVGSGFTFSNYCMNWVRQSPEKGLEWVAEIRLKSNNYVTNYVESVKGRFTISRDDSKSRVYLQMNNLRGEDTGFYYCTRDGYYVPFAYWGQGTLVTVSA VL: QLVLTQSSSASFSLGASAKLTCTLSSQHSTYTIEWYQQQPLKPPKYVMELKKDGSHSTGDGIPDRFSGSSSGADRYLSISNIQPEDEAIYICGVGDTIKEQFVYVFGGGTKVTVL |
